The values below come from patent publication US20220412989A1, “COMPOSITIONS AND METHODS FOR DETECTING CELLS UNDERGOING FERROPTOSIS USING AN ANTIBODY” (THE TRUSTEES OF COLUMBIA UNIVERSITY IN THE CITY OF NEW YORK, priority 2020, published 2022).

The target in assay [1] is T1, TfR1 in human brain tissue (Homo sapiens, UniProt P02786).
T1 construct: human HD and control brain tissues were fixed in 4% PFA for 24 h; from tissue; host or cells: post-mortem human brain (Huntington's disease and control)
T1 sequence (P02786 whole entry): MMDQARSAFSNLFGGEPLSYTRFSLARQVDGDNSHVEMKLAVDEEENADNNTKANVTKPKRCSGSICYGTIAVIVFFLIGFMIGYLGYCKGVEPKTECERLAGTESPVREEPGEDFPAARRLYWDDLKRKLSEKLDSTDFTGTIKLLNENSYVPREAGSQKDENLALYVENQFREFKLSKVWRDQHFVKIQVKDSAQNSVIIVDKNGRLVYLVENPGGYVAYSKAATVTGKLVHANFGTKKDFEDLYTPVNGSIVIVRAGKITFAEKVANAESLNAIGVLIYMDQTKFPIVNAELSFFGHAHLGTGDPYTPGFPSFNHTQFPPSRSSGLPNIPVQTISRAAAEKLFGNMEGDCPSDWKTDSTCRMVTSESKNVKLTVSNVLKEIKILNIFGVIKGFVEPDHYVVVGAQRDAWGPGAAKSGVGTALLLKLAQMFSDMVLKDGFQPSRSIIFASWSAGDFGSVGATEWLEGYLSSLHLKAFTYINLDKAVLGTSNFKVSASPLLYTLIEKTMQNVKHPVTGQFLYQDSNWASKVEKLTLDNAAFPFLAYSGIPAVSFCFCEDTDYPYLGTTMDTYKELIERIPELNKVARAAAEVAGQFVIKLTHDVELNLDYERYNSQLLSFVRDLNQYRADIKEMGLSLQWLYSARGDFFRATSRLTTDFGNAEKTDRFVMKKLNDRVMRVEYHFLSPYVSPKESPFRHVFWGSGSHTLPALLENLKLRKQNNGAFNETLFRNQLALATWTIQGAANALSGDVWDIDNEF
Briefly: Staining of post-mortem human brain tissues. The following applies: Huntington's disease and control. Here is the method: FIGS. 12A-12B show 3F3 FMA staining in human Huntington's disease brains and mouse tissues. In FIG. 12A, human HD and control brain tissues were fixed in 4% PFA for 24 h, perfused in 30% sucrose for 24 h, and stained with DAPI (nuclei, blue) and 3F3 FMA (red). The expression level of TfR1 is low. There was no difference between HD and control groups. In FIG. 12B, mouse liver tissues and mouse GBM tissues were fixed and stained with DAPI (nuclei, blue) and 3F3 FMA (red). 3F3 FMA was able to recognize mouse TfR1.
Tumor tissues were fixed in 4% paraformaldehyde (PFA) for 24 h at 4° C. followed by washing with PBS three times. The tissues were perfused in 30% sucrose for 24 h at 4° C. for cryo-protection. The samples were embedded in OCT cryostat sectioning medium, and then moved directly into a cryostat. After equilibration of temperature, frozen tumor tissues were cut into 5 μm thick sections. Tissue sections were mounted on to poly-L-lysine coated slides by placing the cold sections onto warm slides. […] All images were captured on a Zeiss LSM 800 confocal microscope at Plan-Apochromat 63x/1.40 Oil DIC objective with constant laser intensity for all analyzed samples. The intensity above threshold of the fluorescent signal of the bound antibodies was analyzed using NIH ImageJ software (ImageJ, RRID:SCR_003070). Data were expressed as fold change comparing with the vehicle.

The target in another assay is T2, mouse TfR1 protein (Mus musculus, UniProt Q62351).
T2 construct: from tissue; host or cells: murine glioma grown from murine glioma cells injected into c57/B6 mouse brain
T2 sequence (Q62351 whole entry): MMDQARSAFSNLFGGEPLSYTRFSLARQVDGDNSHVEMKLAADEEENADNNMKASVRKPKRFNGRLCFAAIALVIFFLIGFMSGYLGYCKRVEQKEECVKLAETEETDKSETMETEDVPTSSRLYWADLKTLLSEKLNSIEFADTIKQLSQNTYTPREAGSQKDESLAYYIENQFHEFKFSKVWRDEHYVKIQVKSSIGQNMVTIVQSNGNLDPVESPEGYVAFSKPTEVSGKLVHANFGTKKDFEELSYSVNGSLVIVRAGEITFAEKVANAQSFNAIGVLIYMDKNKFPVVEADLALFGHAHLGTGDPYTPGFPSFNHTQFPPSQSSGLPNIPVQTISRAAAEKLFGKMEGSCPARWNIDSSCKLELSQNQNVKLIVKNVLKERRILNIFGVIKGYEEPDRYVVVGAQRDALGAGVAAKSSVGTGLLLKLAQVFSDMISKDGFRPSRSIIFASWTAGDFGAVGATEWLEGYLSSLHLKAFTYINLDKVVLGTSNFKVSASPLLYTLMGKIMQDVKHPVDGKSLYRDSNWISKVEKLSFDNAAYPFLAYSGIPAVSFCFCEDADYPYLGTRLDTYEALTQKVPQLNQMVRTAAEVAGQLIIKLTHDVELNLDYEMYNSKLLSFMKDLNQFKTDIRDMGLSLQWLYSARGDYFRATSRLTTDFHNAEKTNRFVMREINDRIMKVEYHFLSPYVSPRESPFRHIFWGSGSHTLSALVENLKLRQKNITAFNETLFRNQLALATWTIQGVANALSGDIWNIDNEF
Nature of the assay: Staining of mouse glioblastoma paraffin-embedded tissue. Here is the method: All procedures were performed according to the Columbia University Medical Center Institutional Animal Care and Use Committee. Murine glioma cell lines were created from tumor bearing mice. These tumors were generated by injection of a PDGF-IRES-Cre retrovirus into the subcortical white matter of mice with floxed PTEN and/or p53 (Sonabend et al., 2013). After mice reached end stage, the tumors were dissociated and primary cell cultures were created. These cells harbored the specific mutations of the original tumors, and could be re-injected to form gliomas in c57/B6 mice with high fidelity. Briefly, mice between the ages of 6-8 weeks received 50,000 murine glioma cells through stereotactic injection after being anesthetized with a ketamine/xylazine cocktail (87.5 mg/12.5 mg w/w). After cessation of toe-pinch reflex, the scalp was shaved and cleaned with serial use of betadine and 70% ethanol swabs. An incision was made and the skull was exposed. A burr hole was created, 2 mm anterior, 2 mm lateral and 2 mm deep to the right of the bregma. The cells were injected into the subcortical white matter over a period of 3 minutes (0.333 μL/min). Once the injection ceased, the needle was left in place for 1 minute before being slowly withdrawn. After tumor developed, brains were harvested and fixed in 4% paraformaldehyde and embedded in paraffin. 5 micron sections were made for staining.

B1: 3F3-FMA: murine monoclonal IgG1 raised against ferroptotic membrane fractions; antigen is human transferrin receptor protein 1 (TfR1) (antibody, V domains shown)
VH: EVLLQQSGTELVRPGALVKLSCKASGFNIQDLYIHWVKQRPEQGLEWIGWIDPETDNTIYDPKFQGKASITADTSSNTAYLQLSSLTSEDTAMYYCSTGLLQWYFDVWGAGTAVTVSS
VL: DIVMTQSPSSLAMSIGQKVTMRCKSSQSLLNSYNQKNCLAWYQQKPGQSPKLLLYFVSTRESGVPDRFIGSGSGTDFTLTISSVQAEDLADYFCQQHYSTPLTFGAGTKLELK
Consider B1, for which, in assay [1], the “staining signal in human brain tissue” value is on record as “lack of signal”. For the same molecule, the “recognition of TfR1 in mouse GBM tumor samples” value in the assay with mouse TfR1 protein is reported as “able to recognize mouse TfR1 protein”.
